Values quoted from earlier work as cited in PMC4067134.

Legend:
[1] = target: integrin β3 (Homo sapiens) (UniProt P05106)
[2] = target: integrin αIIbβ3 (Homo sapiens) (UniProt P08514)

UniProt P05106, sequence (P05106 27-718): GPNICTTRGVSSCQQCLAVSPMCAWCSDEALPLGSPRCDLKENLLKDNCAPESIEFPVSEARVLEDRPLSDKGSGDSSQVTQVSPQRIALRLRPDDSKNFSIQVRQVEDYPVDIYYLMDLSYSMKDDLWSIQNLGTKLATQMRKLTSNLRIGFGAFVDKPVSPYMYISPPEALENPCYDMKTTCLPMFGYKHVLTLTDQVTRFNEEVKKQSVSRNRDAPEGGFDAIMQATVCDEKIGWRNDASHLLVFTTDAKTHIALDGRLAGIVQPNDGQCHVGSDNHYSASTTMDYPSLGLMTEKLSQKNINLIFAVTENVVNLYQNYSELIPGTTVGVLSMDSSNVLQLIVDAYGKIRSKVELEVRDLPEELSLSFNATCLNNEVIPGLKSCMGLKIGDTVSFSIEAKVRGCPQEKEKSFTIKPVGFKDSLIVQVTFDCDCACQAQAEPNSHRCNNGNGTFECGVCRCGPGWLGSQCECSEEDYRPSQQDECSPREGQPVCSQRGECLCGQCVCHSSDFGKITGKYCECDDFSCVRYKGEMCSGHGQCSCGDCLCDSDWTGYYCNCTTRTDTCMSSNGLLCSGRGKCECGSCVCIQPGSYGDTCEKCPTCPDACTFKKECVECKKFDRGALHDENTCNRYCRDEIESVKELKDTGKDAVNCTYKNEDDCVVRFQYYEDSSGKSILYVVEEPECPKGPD

Kd [1]: 6.9 µM
Kd [2]: 7 µM
Substance: ERp5 (from UniProt Q15084)
